Assays:
[1] = biological target: T1, monomeric mutant NRP1 b1 Y353A (human, UniProt O14786 273-427, limits assumed); assay: BLI Octet, MAB12 captured on anti-human Fc sensors, monomeric mutant NRP1 b1
T1 construct: Single point mutant of the human NRP1 b1 domain
T1 chain: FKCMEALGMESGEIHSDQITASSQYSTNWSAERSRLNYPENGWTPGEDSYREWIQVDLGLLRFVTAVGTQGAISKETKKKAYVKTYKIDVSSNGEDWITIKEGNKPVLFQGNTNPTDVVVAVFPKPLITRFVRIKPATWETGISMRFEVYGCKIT

[2] = biological target: T2, monomeric mutant NRP1 b1 D320A (human, UniProt O14786 273-427, limits assumed); assay: as above
T2 construct: Single point mutant of the human NRP1 b1 domain
T2 chain: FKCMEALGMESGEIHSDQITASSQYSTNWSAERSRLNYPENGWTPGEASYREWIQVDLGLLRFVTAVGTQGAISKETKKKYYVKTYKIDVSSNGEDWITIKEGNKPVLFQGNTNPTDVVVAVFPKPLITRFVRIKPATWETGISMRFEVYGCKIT

[3] = biological target: T3, monomeric mutant NRP1 b1 K351N (human, UniProt O14786 273-427, limits assumed); assay: as above
T3 construct: Single point mutant of the human NRP1 b1 domain
T3 chain: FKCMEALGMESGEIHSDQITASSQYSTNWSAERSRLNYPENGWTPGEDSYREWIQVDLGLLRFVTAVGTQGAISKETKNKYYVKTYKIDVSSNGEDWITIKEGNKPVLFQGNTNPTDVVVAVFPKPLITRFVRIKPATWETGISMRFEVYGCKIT

[4] = biological target: T4, monomeric mutant NRP1 b1 T349A (human, UniProt O14786 273-427, limits assumed); assay: as above
T4 construct: Single point mutant of the human NRP1 b1 domain
T4 chain: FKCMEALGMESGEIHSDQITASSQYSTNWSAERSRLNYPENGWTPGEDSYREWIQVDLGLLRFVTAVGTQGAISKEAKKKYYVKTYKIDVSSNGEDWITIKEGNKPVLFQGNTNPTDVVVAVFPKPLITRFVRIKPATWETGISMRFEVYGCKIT

[5] = biological target: T5, monomeric mutant NRP1 b1 E412H (human, UniProt O14786 273-427, limits assumed); assay: as above
T5 construct: Single point mutant of the human NRP1 b1 domain
T5 chain: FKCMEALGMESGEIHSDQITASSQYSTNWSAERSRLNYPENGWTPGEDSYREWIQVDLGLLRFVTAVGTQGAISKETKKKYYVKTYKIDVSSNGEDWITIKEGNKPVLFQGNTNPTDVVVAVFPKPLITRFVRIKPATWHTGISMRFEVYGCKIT

[6] = biological target: T6, monomeric mutant NRP1 b1 Y354A (human, UniProt O14786 273-427, limits assumed); assay: as above
T6 construct: Single point mutant of the human NRP1 b1 domain
T6 chain: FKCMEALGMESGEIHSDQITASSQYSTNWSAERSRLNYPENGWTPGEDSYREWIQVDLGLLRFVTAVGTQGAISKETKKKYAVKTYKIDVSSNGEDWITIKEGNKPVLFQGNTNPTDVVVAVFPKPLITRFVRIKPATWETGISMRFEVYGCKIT

[7] = biological target: T7, monomeric mutant NRP1 b1 P317A (human, UniProt O14786 273-427, limits assumed); assay: as above
T7 construct: Single point mutant of the human NRP1 b1 domain
T7 chain: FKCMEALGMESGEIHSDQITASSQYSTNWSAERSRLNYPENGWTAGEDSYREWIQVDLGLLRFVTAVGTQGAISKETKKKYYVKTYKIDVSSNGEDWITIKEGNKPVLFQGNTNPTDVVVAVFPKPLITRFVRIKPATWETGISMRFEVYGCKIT

[8] = biological target: T8, monomeric mutant NRP1 b1 T413A (human, UniProt O14786 273-427); assay: as above
T8 chain: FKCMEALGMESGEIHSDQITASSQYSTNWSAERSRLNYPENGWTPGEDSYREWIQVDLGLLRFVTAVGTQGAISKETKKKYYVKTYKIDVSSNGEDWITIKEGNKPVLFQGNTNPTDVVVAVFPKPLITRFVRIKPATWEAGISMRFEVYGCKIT

[9] = biological target: T9, monomeric mutant NRP1 b1 K352G (human, UniProt O14786 273-427, limits assumed); assay: as above
T9 construct: Single point mutant of the human NRP1 b1 domain
T9 chain: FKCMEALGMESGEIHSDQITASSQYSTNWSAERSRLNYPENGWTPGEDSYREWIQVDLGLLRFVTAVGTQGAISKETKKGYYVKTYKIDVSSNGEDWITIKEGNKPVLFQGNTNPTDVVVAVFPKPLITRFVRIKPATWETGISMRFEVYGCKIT

[10] = biological target: T10, Mouse NRP-1 His (mouse, UniProt P97333 22-856); assay: BLI ForteBio, IgG1 N297A on AHQ sensor, 100 nM monomeric antigen, 1:1 fit
T10 construct: Recombinant monomeric protein; also called mNRP-1; not shown: His tag
T10 sequence (P97333 22-856 limits assumed): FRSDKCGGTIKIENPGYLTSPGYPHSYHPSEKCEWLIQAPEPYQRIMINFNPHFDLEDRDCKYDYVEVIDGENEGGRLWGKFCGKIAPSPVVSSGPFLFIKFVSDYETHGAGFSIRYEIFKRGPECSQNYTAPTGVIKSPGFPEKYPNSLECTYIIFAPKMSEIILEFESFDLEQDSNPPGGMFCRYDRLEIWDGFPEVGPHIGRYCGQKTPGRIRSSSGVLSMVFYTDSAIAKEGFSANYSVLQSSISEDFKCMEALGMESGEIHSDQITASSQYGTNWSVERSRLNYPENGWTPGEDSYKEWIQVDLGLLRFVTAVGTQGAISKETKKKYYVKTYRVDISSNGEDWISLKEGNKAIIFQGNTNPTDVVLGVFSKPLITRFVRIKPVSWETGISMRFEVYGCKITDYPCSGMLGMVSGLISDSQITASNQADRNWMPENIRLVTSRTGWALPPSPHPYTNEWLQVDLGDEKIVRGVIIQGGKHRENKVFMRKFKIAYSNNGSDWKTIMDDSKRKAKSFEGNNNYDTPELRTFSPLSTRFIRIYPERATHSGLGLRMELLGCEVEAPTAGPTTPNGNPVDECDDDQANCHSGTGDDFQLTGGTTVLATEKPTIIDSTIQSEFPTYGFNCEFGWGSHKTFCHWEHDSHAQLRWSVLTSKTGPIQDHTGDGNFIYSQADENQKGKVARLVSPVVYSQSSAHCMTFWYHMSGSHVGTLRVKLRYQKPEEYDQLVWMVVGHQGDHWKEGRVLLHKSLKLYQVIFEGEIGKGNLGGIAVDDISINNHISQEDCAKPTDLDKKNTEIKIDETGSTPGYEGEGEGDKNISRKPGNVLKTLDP

[11] = biological target: T11, Human NRP-1 His (human, UniProt O14786 22-856); assay: as above
T11 construct: Recombinant monomeric protein; Biotinylated in the MSD-SET assay; also called hNRP-1; not shown: His tag
T11 sequence (O14786 22-856 V179A limits assumed): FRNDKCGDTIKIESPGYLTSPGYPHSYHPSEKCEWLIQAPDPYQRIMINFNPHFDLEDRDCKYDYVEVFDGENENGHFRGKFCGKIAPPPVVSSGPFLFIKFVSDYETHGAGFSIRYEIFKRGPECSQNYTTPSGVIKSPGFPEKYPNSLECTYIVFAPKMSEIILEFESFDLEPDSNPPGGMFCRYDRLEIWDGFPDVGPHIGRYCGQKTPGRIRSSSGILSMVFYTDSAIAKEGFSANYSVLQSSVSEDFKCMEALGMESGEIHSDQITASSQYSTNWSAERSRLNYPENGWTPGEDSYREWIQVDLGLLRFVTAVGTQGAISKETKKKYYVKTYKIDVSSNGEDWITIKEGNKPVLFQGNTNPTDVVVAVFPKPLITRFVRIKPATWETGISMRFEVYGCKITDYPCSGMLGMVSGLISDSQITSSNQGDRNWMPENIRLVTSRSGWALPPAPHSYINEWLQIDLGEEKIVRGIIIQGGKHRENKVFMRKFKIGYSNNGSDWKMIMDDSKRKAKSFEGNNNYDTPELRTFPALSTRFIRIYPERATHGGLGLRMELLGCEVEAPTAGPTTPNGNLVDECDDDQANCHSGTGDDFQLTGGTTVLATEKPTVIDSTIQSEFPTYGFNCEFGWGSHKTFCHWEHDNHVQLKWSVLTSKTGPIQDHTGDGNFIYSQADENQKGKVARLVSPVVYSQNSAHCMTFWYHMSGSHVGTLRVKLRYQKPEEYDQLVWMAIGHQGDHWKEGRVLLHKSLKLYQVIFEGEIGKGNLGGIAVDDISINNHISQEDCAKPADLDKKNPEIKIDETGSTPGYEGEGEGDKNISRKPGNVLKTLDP

[12] = biological target: T12, Cyno NRP-1 His (cynomolgus monkey, UniProt O14786 22-856 (human entry), limits assumed); assay: as above
T12 construct: Recombinant monomeric protein; also called cynomolgus monkey NRP-1-His; cNRP-1; not shown: His tag
T12 chain: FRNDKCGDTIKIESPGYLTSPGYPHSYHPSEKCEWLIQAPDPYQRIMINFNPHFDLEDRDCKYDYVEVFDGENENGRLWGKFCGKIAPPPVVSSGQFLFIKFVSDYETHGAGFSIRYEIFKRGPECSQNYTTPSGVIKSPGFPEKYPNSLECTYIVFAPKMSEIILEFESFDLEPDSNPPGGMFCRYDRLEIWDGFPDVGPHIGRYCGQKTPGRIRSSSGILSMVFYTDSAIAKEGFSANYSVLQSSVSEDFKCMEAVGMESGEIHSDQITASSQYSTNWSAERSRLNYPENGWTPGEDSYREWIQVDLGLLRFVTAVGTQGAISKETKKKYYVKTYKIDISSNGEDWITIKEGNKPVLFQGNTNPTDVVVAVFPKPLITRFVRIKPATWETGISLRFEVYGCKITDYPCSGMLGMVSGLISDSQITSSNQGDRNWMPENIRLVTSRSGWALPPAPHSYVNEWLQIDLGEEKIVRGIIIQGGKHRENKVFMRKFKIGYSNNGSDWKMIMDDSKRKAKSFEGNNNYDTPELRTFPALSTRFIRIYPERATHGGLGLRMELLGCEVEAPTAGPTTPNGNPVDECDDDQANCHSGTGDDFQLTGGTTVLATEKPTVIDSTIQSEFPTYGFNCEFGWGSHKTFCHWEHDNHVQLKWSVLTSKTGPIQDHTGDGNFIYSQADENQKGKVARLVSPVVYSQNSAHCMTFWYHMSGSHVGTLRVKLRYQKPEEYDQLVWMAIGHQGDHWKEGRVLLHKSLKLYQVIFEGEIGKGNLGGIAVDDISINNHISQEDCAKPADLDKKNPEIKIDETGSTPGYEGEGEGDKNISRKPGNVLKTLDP

[13] = biological target: T13, recombinant human NRP-1 (human, UniProt O14786 22-856, limits assumed); assay: blocking ELISA: SEMA3A coated, biotinylated human NRP-1 preincubated with IgG1 antibody; competitor SEMA3A
T13 construct: also called biotinylated human NRP-1
T13 sequence (O14786 22-856 V179A limits assumed): as the sequence (O14786 22-856 V179A limits assumed) above

[14] = biological target: T13, recombinant human NRP-1; assay: blocking ELISA: human NRP-1 coated, VEGFA added with IgG1 antibody; competitor VEGFA

binding result [1]: binds
binding result [2]: binds
binding result [3]: no binding
binding result [4]: binds
binding result [5]: no binding
binding result [6]: binds
binding result [7]: binds
binding result [8]: binds
binding result [9]: binds
Kd [10]: 0.44 nM
Kd [11]: 0.481 nM
Kd [12]: 0.469 nM
IC50 [13]: 0.8 nM
IC50 [14]: 6 nM
B1: MAB12 (antibody, V domains shown)
VH: EVQLLESGGGLVQPGGSLRLSCAASGFTFSSVAMVWVRQAPGKGLEWVSAISGSGGATYYADSVEGRFTISRDNSKNTLYLQMNSLRAEDTAVYYCAKDPGYDSSRYYYSNYGMDVWGQGTTVTVSS
VL: DIQMTQSPSSLSASVGDRVTITCRASQSISSYLNWYQQKPGKAPKLLIYGASSLQSGVPSRFSGSGSGTDFTLTISSLQPEDFATYYCQQTYSLYTFGGGTKVEIK

Source: US20190119389A1 (POTENZA THERAPEUTICS, published 2019)
